# Changes are numbered by the printed parent chain.
# T1: human GIP receptor (human, UniProt P48546 22-466)
# T1 sequence (looked up): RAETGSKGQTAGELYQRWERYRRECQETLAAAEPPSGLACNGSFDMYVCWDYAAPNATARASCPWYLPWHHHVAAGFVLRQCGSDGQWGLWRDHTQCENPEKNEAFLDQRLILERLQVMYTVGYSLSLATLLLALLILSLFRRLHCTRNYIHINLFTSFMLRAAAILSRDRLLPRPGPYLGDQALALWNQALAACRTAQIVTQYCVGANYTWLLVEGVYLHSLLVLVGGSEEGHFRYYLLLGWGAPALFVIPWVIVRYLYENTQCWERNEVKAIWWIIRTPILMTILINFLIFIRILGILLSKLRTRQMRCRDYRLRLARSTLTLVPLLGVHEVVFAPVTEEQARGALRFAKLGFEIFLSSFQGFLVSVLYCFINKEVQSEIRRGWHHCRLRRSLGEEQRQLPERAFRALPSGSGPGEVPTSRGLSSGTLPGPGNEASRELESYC
# B1: Example 218 (peptide)
# peptide: YXEGTXTSDXXIXLDXIAQXKFIKXLIEGGPSSGAPPPS
# modifications: Y-Aib-EGT-αMeF(2F)-TSD-4Pal-Aib-I-αMeL-LD-Orn-IAQ-Aib-K((2-[2-(2-Amino-ethoxy)-ethoxy]-acetyl)2-(γ-Glu)-CO-(CH2)12-CO2H)FIK((2-[2-(2-Amino-ethoxy)-ethoxy]-acetyl)2-(γ-Glu)-CO-(CH2)12-CO2H)-αMeY-LIEGGPSSGAPPPS-NH2
# B2: Example 219 (peptide)
# peptide: B1 peptide with K21E, E28K
# modifications: Y-Aib-EGT-αMeF(2F)-TSD-4Pal-Aib-I-αMeL-LD-Orn-IAQ-Aib-EFIK((2-[2-(2-Amino-ethoxy)-ethoxy]-acetyl)2-(γ-Glu)-CO-(CH2)12-CO2H)-αMeY-LIK((2-[2-(2-Amino-ethoxy)-ethoxy]-acetyl)2-(γ-Glu)-CO-(CH2)12-CO2H)GGPSSGAPPPS-NH2
# B3: Example 233 (peptide)
# peptide: B1 peptide with X10Y, K21E, E28K
# modifications: Y-Aib-EGT-αMeF(2F)-TSDY-Aib-I-αMeL-LD-Orn-IAQ-Aib-EFIK((2-[2-(2-Amino-ethoxy)-ethoxy]-acetyl)2-(γ-Glu)-CO-(CH2)12-CO2H)-αMeY-LIK((2-[2-(2-Amino-ethoxy)-ethoxy]-acetyl)2-(γ-Glu)-CO-(CH2)12-CO2H)GGPSSGAPPPS-NH2
# B4: Example 226 (peptide)
# peptide: B1 peptide with X11S, K21E, E28K
# modifications: Y-Aib-EGT-αMeF(2F)-TSD-4Pal-SI-αMeL-LD-Orn-IAQ-Aib-EFIK((2-[2-(2-Amino-ethoxy)-ethoxy]-acetyl)3-(γ-Glu)-CO-(CH2)12-CO2H)-αMeY-LIK((2-[2-(2-Amino-ethoxy)-ethoxy]-acetyl)3-(γ-Glu)-CO-(CH2)12-CO2H)GGPSSGAPPPS-NH2
# B5: Example 246 (peptide)
# peptide: B1 peptide with K21E, E28K
# modifications: Y-Aib-EGT-αMeF(2F)-TSD-4Pal-Aib-I-αMeL-LD-Orn-IAQ-Aib-EFIK((2-[2-(2-Amino-ethoxy)-ethoxy]-acetyl)2-(γ-Glu)-(10-(4-carboxyphenoxy)decanoyl))-αMeY-LIK((2-[2-(2-Amino-ethoxy)-ethoxy]-acetyl)2-(γ-Glu)-(10-(4-carboxyphenoxy)decanoyl))GGPSSGAPPPS-NH2
# B6: Example 253 (peptide)
# peptide: B1 peptide with X11S, K24X, E28K
# modifications: Y-Aib-EGT-αMeF(2F)-TSD-2Nal-SI-αMeL-LD-Orn-IAQ-Aib-K((2-[2-(2-Amino-ethoxy)-ethoxy]-acetyl)2-(γ-Glu)-CO-(CH2)12-CO2H)Fl-(D-Glu)-αMeY-LIK((2-[2-(2-Amino-ethoxy)-ethoxy]-acetyl)2-(γ-Glu)-CO-(CH2)12-CO2H)GGPSSGAPPPS-NH2
# B7: Example 222 (peptide)
# peptide: B1 peptide with X11S, K24X, E28K
# modifications: Y-Aib-EGT-αMeF(2F)-TSD-4Pal-SI-αMeL-LD-Orn-IAQ-Aib-K((2-[2-(2-Amino-ethoxy)-ethoxy]-acetyl)2-CO-(CH2)12-CO2H)Fl-(D-Glu)-αMeY-LIK((2-[2-(2-Amino-ethoxy)-ethoxy]-acetyl)2-CO-(CH2)12-CO2H)GGPSSGAPPPS-NH2 …
# B8: Example 249 (peptide)
# peptide: B1 peptide with X11S, I17K, K24X
# modifications: Y-Aib-EGT-αMeF(2F)-TSD-2Nal-SI-αMeL-LD-Orn-K((2-[2-(2-Amino-ethoxy)-ethoxy]-acetyl)2-(γ-Glu)-CO-(CH2)12-CO2H)AQ-Aib-K((2-[2-(2-Amino-ethoxy)-ethoxy]-acetyl)2-(γ-Glu)-CO-(CH2)12-CO2H)FI-(D-Glu)-αMeY-LIEGGPSSGAPPPS-NH2
# B9: Example 252 (peptide)
# peptide: B1 peptide with X11S, K21E, E28K
# modifications: Y-Aib-EGT-αMeF(2F)-TSD-2Nal-SI-αMeL-LD-Orn-IAQ-Aib-EFIK((2-[2-(2-Amino-ethoxy)-ethoxy]-acetyl)2-(γ-Glu)-CO-(CH2)12-CO2H)-αMeY-LIK((2-[2-(2-Amino-ethoxy)-ethoxy]-acetyl)2-(γ-Glu)-CO-(CH2)12-CO2H)GGPSSGAPPPS-NH2
# B10: Example 227 (peptide)
# peptide: B1 peptide with X11S, K24X, E28K
# modifications: Y-Aib-EGT-αMeF(2F)-TSD-4Pal-SI-αMeL-LD-Orn-IAQ-Aib-K((2-[2-(2-Amino-ethoxy)-ethoxy]-acetyl)3-(γ-Glu)-CO-(CH2)12-CO2H)FI-(D-Glu)-αMeY-LIK((2-[2-(2-Amino-ethoxy)-ethoxy]-acetyl)3-(γ-Glu)-CO-(CH2)12-CO2H)GGPSSGAPPPS-NH2
# B11: Example 239 (peptide)
# peptide: B1 peptide with X10Y, K21E, E28K
# modifications: Y-Aib-EGT-αMeF(2F)-TSDY-Aib-I-αMeL-LD-Orn-IAQ-Aib-EFIK((2-[2-(2-Amino-ethoxy)-ethoxy]-acetyl)2-(γ-Glu)-(10-(4-carboxyphenoxy)decanoyl))-αMeY-LIK((2-[2-(2-Amino-ethoxy)-ethoxy]-acetyl)2-(γ-Glu)-(10-(4-carboxyphenoxy)decanoyl))GGPSSGAPPPS-NH2
# B12: Example 224 (peptide)
# peptide: YXEGTXTSDXSIXLDXKAQXEFIXXLIKGGPSSGAPPPS
# modifications: Y-Aib-EGT-αMeF(2F)-TSD-4Pal-SI-αMeL-LD-Orn-K((2-[2-(2-Amino-ethoxy)-ethoxy]-acetyl)3-(γ-Glu)-CO-(CH2)12-CO2H)AQ-Aib-EFI-(D-Glu)-αMeY-LIK((2-[2-(2-Amino-ethoxy)-ethoxy]-acetyl)3-(γ-Glu)-CO-(CH2)12-CO2H)GGPSSGAPPPS-NH2
# B13: Example 250 (peptide)
# peptide: B12 peptide
# modifications: Y-Aib-EGT-αMeF(2F)-TSD-2Nal-SI-αMeL-LD-Orn-K((2-[2-(2-Amino-ethoxy)-ethoxy]-acetyl)2-(γ-Glu)-CO-(CH2)12-CO2H)AQ-Aib-EFI-(D-Glu)-αMeY-LIK((2-[2-(2-Amino-ethoxy)-ethoxy]-acetyl)2-(γ-Glu)-CO-(CH2)12-CO2H)GGPSSGAPPPS-NH2
# B14: Example 221 (peptide)
# peptide: YXEGTXTSDXSIXLDXKAQXEFIXXLIEGGPSSGAPPPSK
# modifications: Y-Aib-EGT-αMeF(2F)-TSD-4Pal-SI-αMeL-LD-Orn-K((2-[2-(2-Amino-ethoxy)-ethoxy]-acetyl)2-CO-(CH2)12-CO2H)AQ-Aib-EFI-(D-Glu)-αMeY-LIEGGPSSGAPPPSK((2-[2-(2-Amino-ethoxy)-ethoxy]-acetyl)2-CO-(CH2)12-CO2H)-NH2
# B15: Example 225 (peptide)
# peptide: B14 peptide
# modifications: Y-Aib-EGT-αMeF(2F)-TSD-4Pal-SI-αMeL-LD-Orn-K((2-[2-(2-Amino-ethoxy)-ethoxy]-acetyl)3-(γ-Glu)-CO-(CH2)12-CO2H)AQ-Aib-EFI-(D-Glu)-αMeY-LIEGGPSSGAPPPSK((2-[2-(2-Amino-ethoxy)-ethoxy]-acetyl)3-(γ-Glu)-CO-(CH2)12-CO2H)-NH2
# B16: Example 251 (peptide)
# peptide: B14 peptide
# modifications: Y-Aib-EGT-αMeF(2F)-TSD-2Nal-SI-αMeL-LD-Orn-K((2-[2-(2-Amino-ethoxy)-ethoxy]-acetyl)2-(γ-Glu)-CO-(CH2)12-CO2H)AQ-Aib-EFI-(D-Glu)-αMeY-LIEGGPSSGAPPPSK((2-[2-(2-Amino-ethoxy)-ethoxyl-acetyl)2-(γ-Glu)-CO-(CH2)12-CO2H)-NH2
# B17: Example 254 (peptide)
# peptide: B14 peptide with K17I, E21K
# modifications: Y-Aib-EGT-αMeF(2F)-TSD-2Nal-SI-αMeL-LD-Orn-IAQ-Aib-K((2-[2-(2-Amino-ethoxy)-ethoxy]-acetyl)2-(γ-Glu)-CO-(CH2)12-CO2H)FI-(D-Glu)-αMeY-LIEGGPSSGAPPPSK((2-[2-(2-Amino-ethoxy)-ethoxyl-acetyl)2-(γ-Glu)-CO-(CH2)12-CO2H)-NH2
# B18: Example 228 (peptide)
# peptide: B14 peptide with K17I, E21K
# modifications: Y-Aib-EGT-αMeF(2F)-TSD-4Pal-SI-αMeL-LD-Orn-IAQ-Aib-K((2-[2-(2-Amino-ethoxy)-ethoxy]-acetyl)3-(γ-Glu)-CO-(CH2)12-CO2H)FI-(D-Glu)-αMeY-LIEGGPSSGAPPPSK((2-[2-(2-Amino-ethoxy)-ethoxy]-acetyl)3-(γ-Glu)-CO-(CH2)12-CO2H)-NH2
# Molecular target: human GLP-1 receptor (human, UniProt P43220 24-463)
# Assay: cell-based or functional assay
Binder,cAMP EC50 (1.0% HSA),cAMP Emax (1.0% HSA)
B1,36.6 nM,121%
B2,25.9 nM,–
B3,56.7 nM,–
B4,11.3 nM,–
B5,22.9 nM,–
B6,192 nM,–
B7,13.8 nM,117%
B8,51.6 nM,–
B9,131 nM,–
B10,41.8 nM,–
B11,25.2 nM,–
B12,71 nM,–
B13,63 nM,–
B14,17.9 nM,–
B15,51.6 nM,–
B16,51 nM,–
B17,211 nM,122%
B18,42 nM,119%

# Molecular target: human glucagon receptor (human, UniProt P47871 26-477)
# Assay: cell-based or functional assay
row,Binder,cAMP EC50 (1.0% HSA)
1,B1,> 9950 nM
2,B2,> 9950 nM
3,B3,> 9950 nM
4,B4,> 9950 nM
5,B5,> 9950 nM
6,B6,> 9950 nM
7,B7,> 9950 nM
8,B8,> 9950 nM
9,B9,> 9950 nM
10,B10,> 9950 nM
11,B11,> 9950 nM
12,B12,> 9950 nM
13,B13,> 9950 nM
14,B14,> 9950 nM
15,B15,> 9950 nM
16,B16,> 9950 nM
17,B17,> 9950 nM
18,B18,> 9950 nM

# Molecular target: T1, human GIP receptor
# Assay: cell-based or functional assay
Binder,cAMP EC50 (1.0% HSA),cAMP Emax (1.0% HSA)
B1,3.27 nM,95.9%
B2,2.86 nM,–
B3,6.08 nM,91.4%
B4,4.86 nM,–
B5,1.63 nM,–
B6,21.7 nM,–
B7,2.1 nM,–
B8,5.88 nM,–
B9,29.9 nM,–
B10,1.59 nM,–
B11,5.46 nM,–
B12,2.92 nM,–
B13,38.8 nM,–
B14,0.838 nM,67.4%
B15,1.81 nM,67.5%
B16,14.3 nM,71.2%
B17,16.8 nM,68.5%
B18,3.37 nM,83.3%

# From US20230265151A1, “GIP/GLP1 CO-AGONIST COMPOUNDS” (priority 2020, published 2023)
